What is called stoichiometry N is the number of molecules, sites or subunits per partner or assembly.

Experimental findings from paper PMC10940300 are described below.

The target in the test is preF^C (soluble RSV F A2 prefusion F in the Cav1 background with V185Y, K226Y, N428Y, L512V, L513V and Y519F, before crosslinking) (respiratory syncytial virus (RSV F A2) | not stated) (UniProt P03420). Nature of the test: cross-linking; dityrosine crosslinking reaction (Arthromyces ramosus peroxidase and H2O2) of the purified protein; reducing SDS-PAGE (TCEP, 95 °C), Coomassie stain, gel shift from monomer to trimer. In general terms: A gel shift assay detects complexes by their altered migration in electrophoresis.

Turning to “preF^C (soluble RSV F A2 prefusion F in the Cav1 background with V185Y, K226Y, N428Y, L512V, L513V and Y519F, before crosslinking) (from UniProt P03420 26-109) (natural protein)”, the stoichiometry N came out at 3.
